Entries after “also recorded” stand apart in the source; their conditions may differ. *1 amine or outer side, *2 acyl side, *3 side chain or, on linkers, in order; H or OH if unused. Where a SMILES comes first, the peptide text is derived from it. Where no end group is shown, it is not given here. The star is where a group is joined. Doxorubicin(3'-N) = COc1cccc2c1C(=O)c1c(O)c3c(c(O)c1C2=O)C[C@@](O)(C(=O)CO)C[C@@H]3O[C@H]1C[C@H](N*)[C@H](O)[C@H](C)O1; Suc = O=C(CCC(=O)[*:2])[*:1]
Assays:
[1] = In situ cerebral perfusion, penetration into the brain (influx constant Kin); type: in vivo, rat
Procedure: The rats are perfused with the buffer containing free doxorubicin or compounds No. 1 or 2. The doxorubicin is radio-marked with carbon 14 in each product (specific activity=9.4 microCi/mg, Amersham, France). The products are perfused at a concentration of 0.33 microCi/ml or 0.035 mg/rat.
The heart is stopped by cutting the ventricles immediately before perfusion starts, in order to prevent reflux of the perfusate during the perfusion.
The brain is removed quickly after decapitation. The brain is dissected on a mirror into 8 regions, namely Hypothalamus (HY), frontal Cortex (CF), Mesencephale (MS), Occipital Cortex (CO), Parietal Cortex (CP), Thalamus (TH), Hippocampus (HP), Striatum (ST), which are placed in previously calibrated glass flasks and then weighed. These structures and 50 microliters of perfusate are digested for two hours in 1 ml of soluene at 60° C. A scintillating cocktail (10 ml, Pico-fluor, Packard) is added to each sample and the quantity of tracers contained in them is measured by double counting in liquid scintillation (Packard, Tricarb, 1900TR).
This study consisted of comparing penetration in the HEB of doxorubicin alone with doxorubicin using compounds numbers 1 and 2 as vectors. After 60 seconds perfusion in the buffer, the penetration of products was estimated using the influx constant or Kin in microl/sec/g. […]

[2] = Capillary depletion after cerebral perfusion and rinsing (distribution volume Vd); type: in vivo, rat
Procedure: This method is used to measure the distribution of products between the cerebral parenchyma and endothelial cells, Triguero et al., 1990, J. Neurochem. 54, 1882-1888). After 60 seconds of perfusion, that may or may not be followed by 30 seconds rinsing, the right hemisphere is removed, its meninges and choroid plexus are removed, and it is then homogenized in 3.5 ml of Hepes buffer (10 mM of Hepes, 141 mM of NaCl, 4 mM of KCl, 1 mM of NaH2PO4, 2.8 mM of CaCl2, 1 mM of MgSO4 and 10 mM of D-glucose, pH=7.4). After grinding in the potter, 4 ml of solution containing 4% of Dextran (PM=76900) are added and the mix is stirred vigorously in order to obtain a […]. All these operations are carried out at 4° C. in less than 5 minutes. After taking a sample of the homogenate thus obtained, the homogenate is then put into the centrifuge for 15 minutes at 5400 g in order to separate the endothelial cells present in the base of the cerebral parenchyma that remained in the floating material. The results are expressed as distribution volumes in the floating material and the base.
This method measures the distribution of products between the cerebral parenchyma and endothelial cells. Capillary depletion is carried out after 60 seconds perfusion followed by 30 seconds rinsing. The distribution volumes (Vd) in endothelial cells and the cerebral parenchyma are expressed in microliters/g.

[3] = test system: HEB; assay: Tolerance to products: integrity of HEB by [3H]-sucrose distribution volume during in situ cerebral perfusion; details: co-perfused with [3H]-sucrose
From the text: This is a fast and sensitive method of evaluating the penetration of various compounds into the central nervous system (Takasato et al., 1984, Am. J. Physiol. 247, 484-493; Allen et al., 1997, Pharm Res. 14, 337-341). Two month old male Sprague-dawley rats (250-350 g. Iffa-Credo; l'Arbresle, France) are anaesthetised. After exposure of the common carotid, the right external carotid artery is bound at the junction with the internal carotid and the common carotid is bound between the heart and the site at which the catheter is installed (polyethylene catheter, ID=0.76). This catheter, previously filled with a solution of heparin (100 units/ml) is inserted into the common carotid. Rats are perfused with the perfusion buffer (128 mM NaCl, 24 mM NaHCO3, 4.2 mM KCl, 2.4 mM NaH2PO4, 1.5 mM CaCl2, 0.9 mM MgSO4, and 9 mM D-glucose). This buffer is filtered and then is bubbled using a mix containing 95% O2/5% CO2 in order to keep the pH close to 7.4 and to supply oxygen to the brain during the perfusion.
It is estimated that this volume must not exceed […]. For larger volumes, it is concluded that the permeability of HEB is abnormal.
Doxorubicin, compounds numbers 1 and 2 were injected in the presence of sucrose and the integrity of the HEB is measured.

[4] = Intravenous injection in NMRI-nude mice, radioactivity in the brain; details: for Product quantity in brain: i.v. 2.5 mg DXR base/kg
Procedure: NMRI-nude mice are injected intravenously with compound No. 1 or doxorubicin alone at a dose of 2.5 mg/kg (equivalent in doxorubicin). The doxorubicin is marked with carbon 14 (about 0.5 microCi is injected per mouse). The mice are sacrificed after 1, 5, 15, 30, 60, 180, 480 and 1360 minutes. The organs are then removed and counted. The quantity of radioactivity in each organ is then expressed as the quantity of product per gram of organ. In this study, we used five mice for each period of time.
After intravenous injection of compound No. 1, nude mice were sacrificed at different times and the total radioactivity in the brain was counted and expressed as a quantity of product per gram of brain.

[5] = Intravenous injection in CD1 mice, whole-body autoradiography, brain; details: i.v. 2 mg DXR base/kg
Procedure: In the case of compound No. 2, the CD1 mouse is injected intravenously with compound No. 2 or with free doxorubicin at a dose of 2 mg/kg (equivalent in doxorubicin). Doxorubicin is marked with carbon 14 (about 3 microCi is injected per mouse). The mouse is sacrificed after 15 minutes, 2 hours and 8 hours, and the product quantity in each organ is analysed using the “Whole-body autoradiography” technique. The quantity of radioactivity in each organ is then expressed as a quantity of product per gram of organ. We used one mouse per group in this experiment.
The total radioactivity in the brain is analysed using the “Whole body autoradiography” method and is expressed as a product quantity per gram of brain.

[6] = for Reduction of the influx constant after rinsing: 60 s perfusion then 30 s rinsing with buffer without tracer
Procedure: For rats on which the rinsing step is carried out, the catheter is inserted into the common carotid as described above, and is then connected to a 4-way valve (opposite passages) (Hamilton, USA) connected to two syringes; one containing the radio-marked tracer (syringe A) and the other the buffer alone (syringe B). Once the catheter is in position and the connections have been made correctly, the thoracic cage of the rat is opened and the heart is cut. The contents of syringe A are then immediately perfused at a rate of 10 ml/min. After 60 seconds, the contents of syringe B are injected in turn at the same rate. The rat is decapitated after 30 seconds of rinsing.
Rinsing of cerebral capillaries by perfusion of the buffer without tracer for 30 seconds eliminates the fraction of the product being studied adhering to the luminal membrane of endothelial cells, if any.

[7] = Hot Plate model (latency time); type: in vivo, mouse; details: for Effect on latency time / analgesic activity: i.v. injection, latency measured 0 to 90 minutes; for Latency time: 2 mg/Kg i.v. (dalargine equivalent), 5 minutes after injection
Procedure: For the purposes of this study, the biological activity of dalargine alone was compared with the biological activity of dalargine vectorised with SynB1. Consequently, the “Hot Plate” model in the mouse was used. In this model, the mouse is placed on a hot plate and the time that the mouse takes to react to heat is measured as the “latency time”.
2 mg/Kg of each product was injected intravenously into the mouse (the dose corresponding to the quantity of dalargine). After times varying from 0 to 90 minutes, the latency time was measured. […] The latency time is constant. […] For example 5 minutes after injection, the latency time of vectorised dalargine is 22.75 seconds, whereas it is only 7.6 seconds for dalargine alone.

[8] = 60 seconds perfusion followed by 30 seconds rinsing

## COc1cccc2c1C(=O)c1c(O)c3c(c(O)c1C2=O)C[C@@](O)(C(=O)CO)C[C@@H]3O[C@H]1C[C@H](NC(=O)CCC(=O)N[C@@H](CCCNC(=N)N)C(=O)N[C@@H](CCCNC(=N)N)C(=O)N[C@@H](CC(C)C)C(=O)N[C@@H](CO)C(=O)N[C@@H](Cc2ccc(O)cc2)C(=O)N[C@@H](CO)C(=O)N[C@@H](CCCNC(=N)N)C(=O)N[C@@H](CCCNC(=N)N)C(=O)N[C@@H](CCCNC(=N)N)C(=O)N[C@@H](Cc2ccccc2)C(=O)O)[C@H](O)[C@H](C)O1 [No. 5, Doxo-CO—(CH2)2—CO-RRLSYSRRRF] ({Doxorubicin(3'-N)-Suc}-RRLSYSRRRF-OH)
[1]; 60 seconds perfusion in the buffer
  Increase of transfer into the brain (Kin) compared with doxorubicin alone: five times
[2]; [8]
  Penetration in the cerebral parenchyma compared with free doxorubicin: 50 times
  Vd in the cerebral parenchyma: 98.32 µL/g

## CC1(C)S[C@@H]2[C@H](NC(=O)Cc3ccccc3)C(=O)N2[C@H]1C(=O)O [benzylpenicillin, Benzylpenicillin, reference compound]
[2]; 30 seconds perfusion followed by 30 seconds rinsing
  Vd in the cerebral parenchyma: 3.94 µL/g

## COc1cccc2c1C(=O)c1c(O)c3c(c(O)c1C2=O)C[C@@](O)(C(=O)CO)C[C@@H]3O[C@H]1C[C@H](N)[C@H](O)[C@H](C)O1 [doxorubicin, Doxorubicin, reference compound]
[3]; perfused dose 0.07 mg
  State of the HEB: Integral
[2]; [8]
  Vd in the cerebral parenchyma: 1.75 µL/g
[4]; 1 min
  Product quantity in brain: 0.14 microg/g of brain
[4]; 5 min
  Product quantity in brain: 0.05 microg/g of brain
[4]; 15 min
  Product quantity in brain: 0.04 microg/g of brain
[4]; 30 min
  Product quantity in brain: 0.05 microg/g of brain
[4]; 60 min
  Product quantity in brain: 0.04 microg/g of brain
[4]; 180 min
  Product quantity in brain: 0.03 microg/g of brain
[4]; 480 min
  Product quantity in brain: 0.04 microg/g of brain
[4]; 1360 min
  Product quantity in brain: 0.01 microg/g of brain
[5]; 15 min
  Product quantity in brain: 1.24 ug/g of brain
[5]; 120 min
  Product quantity in brain: 0.98 ug/g of brain
[5]; 480 min
  Product quantity in brain: 0.67 ug/g of brain
[6]
  Reduction of the influx constant after rinsing: about 25%

## Doxo-CO—(CH2)2—CO-RGGRLSYSRRRFSTSTGR ({doxorubicin-Suc}-RGGRLSYSRRRFSTSTGR) [Compound No. 1]
[3]; perfused dose 0.05 mg
  State of the HEB: Integral
[3]; perfused dose 0.8 mg
  State of the HEB: does not open the HEB abnormally; also recorded: Integral
[2]; [8]
  Vd in the cerebral parenchyma: 28.5 µL/g
[2]; 1 minute perfusion followed by 30 seconds rinsing
  Fraction of compound found in the cerebral parenchyma: About 60%
[4]; 1 min after i.v. injection
  Ratio of compound No. 1/doxorubicin (brain quantity): 3.4
[4]; 5 min after i.v. injection
  Ratio of compound No. 1/doxorubicin (brain quantity): 3.6
[4]; 15 min after i.v. injection
  Ratio of compound No. 1/doxorubicin (brain quantity): 10.5
[4]; 30 min after i.v. injection
  Ratio of compound No. 1/doxorubicin (brain quantity): 5
[4]; 60 min after i.v. injection
  Ratio of compound No. 1/doxorubicin (brain quantity): 3
[4]; 180 min after i.v. injection
  Ratio of compound No. 1/doxorubicin (brain quantity): 1
[4]; 1 min
  Product quantity in brain: 0.48 microg/g of brain
[4]; 5 min
  Product quantity in brain: 0.18 microg/g of brain
[4]; 15 min
  Product quantity in brain: 0.42 microg/g of brain
[4]; 30 min
  Product quantity in brain: 0.25 microg/g of brain
[4]; 60 min
  Product quantity in brain: 0.12 microg/g of brain
[4]; 180 min
  Product quantity in brain: 0.03 microg/g of brain
[4]; 480 min
  Product quantity in brain: 0.02 microg/g of brain
[4]; 1360 min
  Product quantity in brain: 0.01 microg/g of brain
[6]; 60 s perfusion then 30 s rinsing
  Increase of penetration after rinsing compared with free doxorubicin (factor): 4
[6]
  Reduction of the influx constant after rinsing: 45%

## RGGRLSYSRRRFSTSTGR (PEPTIDE (1)..(18) Syn B1) [SynB1]
[7]
  Effect on latency time / analgesic activity: no analgesic activity

## Y-(D)A-GFLR [dalargine, reference compound]
[7]
  Latency time: 7.6 s
  Effect on latency time / analgesic activity: no effect was observed

## Y-(D)A-GFLR-S-S-RGGRLSYSRRRFSTSTGR [dal-SynB1]
[1]; 60 seconds perfusion in the buffer (FIG. 7)
  Transfer into the brain (Kin) compared with dalargine alone: considerably increases its transfer into the brain
[7]
  Latency time: 22.75 s
  Effect on latency time / analgesic activity: an increase in the latency time is observed

From patent US7399747B1, “Peptides carrying substances across the blood brain barrier” (SYNT:EM, priority 1998, dated 2008)
